T1: mature form of human VEGF-C (human, UniProt P49767 103-227)
T1 sequence: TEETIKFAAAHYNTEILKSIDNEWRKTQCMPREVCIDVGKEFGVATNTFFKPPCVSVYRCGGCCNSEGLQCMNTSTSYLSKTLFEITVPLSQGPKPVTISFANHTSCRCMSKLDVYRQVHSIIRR


Target: T1, mature form of human VEGF-C
Test: cell-based or functional assay

| Molecule | VEGF-C dependent viability (Ba/F3 VEGFR-3/EpoR, MTT) (fold molar excess) | VEGF-C-dependent cell survival (Ba/F3 VEGFR-3/EpoR, MTT) |
| --- | --- | --- |
| VEGFR-2-Ig (Fc fusion) | 10 |  |
| VEGFR-3-Ig fusion protein (first three Ig-homology domains of VEGFR-3 and IgG Fc domain) (Fc fusion, not shown: a dimerising Fc or GST) YSMTPPTLNITEESHVIDTGDSLSISCRGQHPLEWAWPGAQEAPATGDKDSEDTGVVRDCEGTDARPYCKVLLLHEVHANDTGSYVCYYKYIKARIEGTTAASSYVFVRDFEQPFINKPDTLLVNRKDAMWVPCLVSIPGLNVTLRSQSSVLWPDGQEVVWDDRRGMLVSTPLLHDALYLQCETTWGDQDFLSNPFLVHITGNELYDIQLLPRKSLELLVGEKLVLNCTVWAEFNSGVTFDWDYPGKQAERGKWVPERRSQQTHTELSSILTIHNVSQHDLGSYVCKANNGIQRFRESTEVIVHE |  | 0.5 molar ratio (VEGFR-3-Ig:VEGF-C) |

Source: patent US20150141622A1 (published 2015)
